# Source: patent EP0811683B1, “Antibodies to human gastrin-releasing peptide precursor and use thereof” (Yamaguchi, Ken, priority 1996, dated 1997)
# Where no end group is shown, it is not given here.
# Test: Comparison of stability of GRPs in the blood (serum, plasma, aprotinin-containing plasma; Fig. 3)
# Format: in vitro ADME
# Details: 0, 1 and 6 hours, result in words
# Method: Stabilities in the blood of GRP(1-27) and GRP(31-98) were compared using antibodies to the above-prepared GRP(31-98) and antibodies to the conventional GRP(1-27).
# A small amount of GRP(1-27) or GRP(31-98) was added to a serum, plasma, or aprotinin - containing plasma, and the residual concentration of GRP(1-27) and GRP(31-98) was determined at 0, 1, and 6 hours from the addition, and the percentages of the residual concentration were obtained taking the concentration at the starting point (0 hour) as 100%.
substance,measurement,value
"GRP(1-27): mature human gastrin-releasing peptide, active peptide of 27 amino acids (VPLPAGGGTVLTKMYPRGNHWAVGHLM; ends and bridges not checked; UniProt P07492 24-50, looked up)",stability in serum or plasma (residual concentration),degraded and disappeared
